In patent US20220072101A1, “HARNESSING INFLAMMATION TO TREAT NEURODEVELOPMENTAL DISORDERS” (President and Fellows of Harvard College, priority 2019, published 2022):
“Also recorded” adds a separate entry of the source. Counter-ions that a name gives are not always drawn.

Legend:
Type in all cases: in vivo, mouse
[1] = system: MIA offspring; assay: Three-chamber social approach assay in PBS and MIA offspring; conditions: for sociability phenotype after IL-17a into S1DZ: MIA offspring, IL-17a 50 ng/side bilaterally into S1DZ, 4 hours, no LPS
Procedure: Adult male mice were assayed for sociability using a three-chamber social approach assay. The arena was constructed of white acrylic (50 cm×35 cm×30 cm). Wire cups (Spectrum Diversified®) were placed in the back left and right corner of the arena beneath water-filled 1 L bottles (Nalgene®). On Day 0, mice were habituated to the arena for 10 min. Immediately following habituation, mice were singly housed. On Day 1 (Pre), mice were placed in the center of the arena and allowed to freely explore. Following 10 min, mice were confined to the center of the arena. An inanimate object (rubber stopper) or a male conspecific were placed beneath the wire cups. Placement of the inanimate object and social target were alternated. Mice were then allowed to freely explore the arena for 10 min. Interaction time was defined as time spent in the areas circumscribing the wire cups (<2 cm). Sociability was defined as interaction time with the social target divided by total interaction time and expressed as a percentage. For experiments involving LPS injections, mice were injected with LPS ([…], i.p., L2630, Sigma) on Day 2 (Test), four hours prior to testing. […]
Adult male mice were implanted with cannula into S1DZ and allowed to recover for >2 weeks prior to behavioral experiments. On Day 1 (Pre) mice were assayed for sociability. On Day 2 (Test), mice were anesthetized briefly using isoflurane and either vehicle or IL-17a (50 ng/side in 1 μl at a rate of 180 nl/min, 7956-ML/CF, R&D®) was administered bilaterally into S1DZ through 250 μm-projecting injector tips (PlasticsOne®). Four hours after vehicle or IL-17a administration, mice were assayed for sociability. Cannula placements were verified using histology.
(§1) Adult male mice were assayed for sociability using a three-chamber social approach assay. The arena was constructed of white acrylic (50 cm×35 cm×30 cm). Wire cups (Spectrum Diversified®) were placed in the back left and right corner of the arena beneath water-filled 1 L bottles (Nalgene®). On day 0, mice were habituated to the arena for 10 min. Immediately following habituation, mice were singly housed. On day 1 (Pre), mice were placed in the center of the arena and allowed to freely explore. Following 10 min, mice were confined to the center of the arena. An inanimate object (rubber stopper) or a male conspecific were placed beneath the wire cups. Placement of the inanimate object and social target were alternated. Mice were then allowed to freely explore the arena for 10 min. Interaction time was defined as time spent in the areas circumscribing the wire cups (<2 cm). Sociability was defined as interaction time with the social target divided by total interaction time and expressed as a percentage. For experiments involving LPS injections, mice were injected with either saline (Veh) or LPS ([…], i.p., L2630, Sigma) on day 2 (Test), four hours prior to testing. For the experiment assaying sociability 72 hrs following LPS injection, mice used for 4 hr LPS sociability experiments were tested for sociability again at 72 hrs.
Adult male Vgat-Cre MIA offspring were bilaterally injected with virus encoding the inhibitory DREADD receptor fused to mCherry into the vLPO. Following >3 weeks of recovery, mice were assayed on the three-chamber social approach assay outlined above. Baseline sociability was assayed on day 1 (Pre). On day 2 and day 3, mice were injected with either Saline (Veh) or CNO (1.5 mg/kg i.p., BML-NS105, Enzo Life Sciences®), two hours prior to initiation of behavior. Injection order was counterbalanced. Following behavioral experiments, post-mortem histology was used to confirm mCherry expression within the vLPO. For experiments assaying the effect of CNO and LPS injection in Vgat-Cre PBS and MIA offspring that have not undergone surgery, baseline sociability was assessed on day 1. On day 2 and 3 mice received counterbalanced injections of CNO or vehicle. On day 4, mice were injected with LPS. […]

[2] = system: IL-17a, IFNγ, IL-6, TNFα; assay: ELISA of cytokines in plasma and brain lysate; conditions: LPS-injected MIA offspring; antibiotic by oral gavage
Procedure: Mice were put under general anesthesia by intraperitoneal injection of Ketamine (100 mg/kg, i.p.) and xylazine (10 mg/kg, i.p.). Blood was collected by retro-orbital puncture, using clean heparinized microhematocrit capillary tubes (Fisher Scientific®). Once the tube was withdrawn, slight pressure was applied on the eyelid with gauze to prevent further bleeding. All blood samples were centrifuged at 15,000 g for 3 min at room temperature. For quantification of cytokines in brain lysate, samples were disrupted in cold lysis buffer with protease inhibitor cocktail for 60 seconds using the Micro-Homogenizer (VWR International) and centrifuged for 30 min at 15,000×g to remove insoluble precipitates. All samples were stored at −80° C. until further analysis. Plasma and brain lysate cytokines concentrations were measured using an ELISA kit (Biolgened™), following the manufacturer's instructions.
After four hours of vehicle or LPS administration, mice were anesthetized by intraperitoneal injection of fatal plus (100 mg/kg). All blood samples were centrifuged at 10,000 g for 10 min at 4 C. All samples were stored at −80° C. until further analysis. Cytokines concentrations in plasma were measured using an ELISA kit (IFN-γ; 430804, TNF-α; 430904, IL-6; 431304, IL-17a; 432504, Biolegend®), following the manufacturer's instructions.

[3] = system: segmented filamentous bacteria (SFB); assay: SFB levels by 16S rRNA qPCR of fecal pellets and SEM of ileum after antibiotics; conditions: Taconic-derived mice; vancomycin 2.5 mg/kg or metronidazole 10 mg/kg orally every two days
Procedure: For SFB-gavaging experiments, four fecal pellets of SFB mono-colonized mice were dissolved in 20 ml sterile PBS and filtered through a 100-μm cell strainer. 200 μl of fecal suspensions were gavaged via oral route into 8 to 9-week-old male cross-fostered mice. Control mice were gavaged with PBS. The SFB colonization was tested on day 7 following SFB-gavaging. For antibiotics treatments, Taconic-derived male mice were orally gavaged with vancomycin hydrochloride (Fisher) (2.5 mg/kg) or metronidazole (10 mg/kg) (Sigma Aldrich®) every two days, starting 21 days before behavioral test. Mouse fecal pellets were collected and stored at −80° C. before and after vancomycin and metronidazole treatments.
Bacterial genomic DNA was isolated from the fecal pellets of mice with phenol-chloroform extraction. qPCR was performed to quantify relative abundance of segmented filamentous bacteria (SFB). […] Data were analysed using Roche (Lightcylcler^R 96 SW1.1) Software and the relative quantification (fold) of SFB DNA was performed using the ΔΔCt method.
Terminal ileum tissues from mice (8-10 weeks old) were cut open and fixed with 2.5% glutaraldehyde in 0.1 M cacodylate buffer (pH 7.4) overnight and processed for standard scanning electron microscopy. All samples were analysed on a Hitachi S-4800 Type II Field Emission Scanning Electron Microscope™.

[4] = system: Cntnap2, Fmr1, and Shank3 mutant mice; assay: Three-chamber social approach assay in monogenic mutant mice; conditions: Cntnap2 and Fmr1 (monogenic) mutant mice, IL-17a 50 ng/side bilaterally into S1DZ, 4 hours
Procedure: All experiments were performed according to Guide for the Care and Use of Laboratory Animals and were approved by the National Institutes of Health and the Committee on Animal Care at Massachusetts Institute of Technology. C57BL/6 were purchased from Taconic Biosciences for generating PBS and MIA offspring. Vgat-Cre (028862) were purchased from Jackson Laboratories and inbred. For monogenic experiments, C57BL/6, Cntnap2 (017482), Fmr1 (003025), and Shank3 (017688) mice were purchased from Jackson Laboratories and inbred after colonizing with SFB from donor mice. IL-17Ra^fl/fl and IL-17RaKO were previously described^24,25. All mice were males aged 2-5 months, unless otherwise specified.
as §1, with “hrs. […]” for “hrs.”

C[N+]1([O-])CCN(C2=Nc3cc(Cl)ccc3Nc3ccccc32)CC1 [CNO]
sociability in MIA Vgat-Cre mice ([1]; Vgat-Cre MIA offspring without surgery, CNO 1.5 mg/kg i.p. or LPS): unaffected by CNO treatment

CN[C@H](CC(C)C)C(=O)N[C@H]1C(=O)N[C@@H](CC(N)=O)C(=O)N[C@H]2C(=O)N[C@H]3C(=O)N[C@H](C(=O)N[C@H](C(=O)O)c4cc(O)cc(O)c4-c4cc3ccc4O)[C@H](O)c3ccc(c(Cl)c3)Oc3cc2cc(c3O[C@@H]2O[C@H](CO)[C@@H](O)[C@H](O)[C@H]2O[C@H]2C[C@](C)(N)[C@H](O)[C@H](C)O2)Oc2ccc(cc2Cl)[C@H]1O [vancomycin, vancomycin hydrochloride]
LPS-induced increase in plasma and brain IL-17a and plasma IFNγ after antibiotic pretreatment [2]: suppressed the systemic increase in plasma and brain levels of IL-17a as well as the plasma levels of IFNγ
intestinal colonization by SFB (qPCR of fecal samples) [3]: severely reduced
LPS-induced reversal of the sociability phenotype after antibiotic pretreatment ([1]; LPS-injected MIA offspring, antibiotic by oral gavage every two days from 21 days before test): prevented the reversal of the sociability phenotype

B1: recombinant IL-17a: recombinant IL-17a protein (7956-ML/CF, R&D) administered bilaterally into S1DZ (protein)
chain: AAIIPQSSACPNTEAKDFLQNVKVNLKVFNSLGAKVSSRRPSDYLNRSTSPWTLHRNEDPDRYPSVIWEAQCRHQRCVNAEGKLDHHMNSVLIQQEILVLKREPESCPFTFRVEKMLVGVGCTCVASIVRQAA
sociability phenotype after IL-17a into S1DZ [1]: sufficient to promote sociability in monogenic mutant mice as well as in MIA offspring; also recorded: sufficient to rescue the sociability phenotypes of not only MIA offspring
sociability phenotype after IL-17a into S1DZ ([1]; listed as IL-17a): sufficient to rescue sociability deficits in MIA offspring; also recorded: rescues sociability deficits in both MIA offspring and monogenic mutant mice
sociability phenotype after IL-17a into S1DZ ([1]; listed as exogenous IL-17a): rescued sociability deficits
sociability phenotype after IL-17a into S1DZ ([1]; listed as recombinant IL-17a protein): sufficient to rescue the sociability phenotype of MIA offspring
sociability phenotype after IL-17a into S1DZ [4]: sufficient to promote sociability in monogenic mutant mice
sociability phenotype after IL-17a into S1DZ ([4]; listed as IL-17a): rescues sociability deficits in both MIA offspring and monogenic mutant mice
